# Data reported in patent publication US20230136228A1 (LAMKAP BIO ALPHA, published 2023).
# Residue numbers refer to the chain shown, from its start. In names and notes the source's numbering stands.
# B1: AB1 L3-1/D (bispecific antibody, human IgG1, kappa, lambda, L234A L235A)
# heavy: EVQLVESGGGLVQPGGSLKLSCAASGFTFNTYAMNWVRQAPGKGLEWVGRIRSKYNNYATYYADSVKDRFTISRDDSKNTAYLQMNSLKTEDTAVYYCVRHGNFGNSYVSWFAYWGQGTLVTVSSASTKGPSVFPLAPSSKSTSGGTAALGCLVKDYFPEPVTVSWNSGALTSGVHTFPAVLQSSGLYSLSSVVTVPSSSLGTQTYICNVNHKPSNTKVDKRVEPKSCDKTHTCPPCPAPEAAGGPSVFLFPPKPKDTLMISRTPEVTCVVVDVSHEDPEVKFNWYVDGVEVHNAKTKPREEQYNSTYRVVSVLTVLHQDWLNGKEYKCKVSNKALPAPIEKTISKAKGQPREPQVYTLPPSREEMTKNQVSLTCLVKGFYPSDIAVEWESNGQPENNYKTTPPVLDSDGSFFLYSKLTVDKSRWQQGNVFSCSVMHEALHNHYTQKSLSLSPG
# light 1: EIVLTQSPATLSLSPGERATLSCRASQSVNSNLNWYQQKPGQAPRLLIYHGSNRATGIPARFSGSGSGTDFTLTISSLEPEDFAVYYCQQFDLRHEHNTFGQGTKVEIKRTVAAPSVFIFPPSDEQLKSGTASVVCLLNNFYPREAKVQWKVDNALQSGNSQESVTEQDSKDSTYSLSSTLTLSKADYEKHKVYACEVTHQGLSSPVTKSFNRGEC
# light 2: QTVVTQEPSLTVSPGGTVTLTCRSSTGAVTTSNYANWFQQKPGQAPRGLIGGTNKRAPGTPARFSGSLLGGKAALTLSGAQPEDEAEYYCALWYKQRWVFGGGTKLTVLGQPKAAPSVTLFPPSSEELQANKATLVCLISDFYPGAVTVAWKADSSPVKAGVETTTPSKQSNNKYAASSYLSLTPEQWKSHRSYSCQVTHEGSTVEKTVAPTECS
# notes: KL CEAxCD3 bispecific antibody, hIgG1 L234A+L235A
# B2: AB66L3-1/N (bispecific antibody, human IgG1, kappa, lambda, L234A L235A)
# heavy: EVQLVESGGGLVQPGGSLKLSCAASGFTFNTYAMNWVRQAPGKGLEWVGRIRSKYNNYATYYADSVKDRFTISRDDSKNTAYLQMNSLKTEDTAVYYCVRHGNFGNSYVSWFAYWGQGTLVTVSSASTKGPSVFPLAPSSKSTSGGTAALGCLVKDYFPEPVTVSWNSGALTSGVHTFPAVLQSSGLYSLSSVVTVPSSSLGTQTYICNVNHKPSNTKVDKRVEPKSCDKTHTCPPCPAPEAAGGPSVFLFPPKPKDTLMISRTPEVTCVVVDVSHEDPEVKFNWYVDGVEVHNAKTKPREEQYNSTYRVVSVLTVLHQDWLNGKEYKCKVSNKALAAPIEKTISKAKGQPREPQVYTLPPSREEMTKNQVSLTCLVKGFYPSDIAVEWESNGQPENNYKTTPPVLDSDGSFFLYSKLTVDKSRWQQGNVFSCSVMHEALHNHYTQKSLSLSPG
# light 1: B1 light 1 with R24H, A25S, S28V, S31K, L93Y, R94F, H95R
# light 2: B1 light 2
# notes: Kappa-lambda body, lead optimization wave 2
# B3: AB60L3-1/N (bispecific antibody, human IgG1, kappa, lambda, L234A L235A)
# heavy: B2 heavy
# light 1: B1 light 1 with S28T, S31A, H50Y, G51A, L93Y, R94H, H95N
# light 2: B1 light 2
# notes: as for B2
# B4: AB15L3-1/N (bispecific antibody, human IgG1, kappa, lambda, L234A L235A)
# heavy: B2 heavy
# light 1: B1 light 1 with S28T, S31N, A43S, H50Y, G51A, D92N, L93Y, R94H
# light 2: B1 light 2
# notes: Kappa-lambda body, lead optimization wave 1
# B5: AB14L3-1/N (bispecific antibody, human IgG1, kappa, lambda, L234A L235A)
# heavy: B2 heavy
# light 1: B1 light 1 with L93Y, R94F, H95R, H97S
# light 2: B1 light 2
# notes: as for B4
# B6: AB13L3-1/N (bispecific antibody, human IgG1, kappa, lambda, L234A L235A)
# heavy: B2 heavy
# light 1: B1 light 1 with L93Y, R94F, H95M, E96N, H97K
# light 2: B1 light 2
# notes: as for B4
# B7: AB20L3-1/N (bispecific antibody, human IgG1, kappa, lambda, L234A L235A)
# heavy: B2 heavy
# light 1: B1 light 1 with L93Y, R94F, H95R, H97L
# light 2: B1 light 2
# notes: as for B4
# B8: AB54L3-1/N (bispecific antibody, human IgG1, kappa, lambda, L234A L235A)
# heavy: B2 heavy
# light 1: B1 light 1 with S28E, N30H, S31K, G51S, D92N, L93Y, R94H
# light 2: B1 light 2
# notes: as for B2
# B9: anti-CEA antibody C11 (antibody, human IgG1, kappa, V domains shown)
# VH: EVQLVESGGGLVQPGGSLKLSCAASGFTFNTYAMNWVRQAPGKGLEWVGRIRSKYNNYATYYADSVKDRFTISRDDSKNTAYLQMNSLKTEDTAVYYCVRHGNFGNSYVSWFAYWGQGTLVTVSS
# VL: DIQMTQSPSTLSASVGDRVTITCRASQLISNGLYWYQQKPGKAPKLLIYDASILESGVPSRFSGSGSGTEFTLTISSLQPDDFATYYCQQRLSWPLTFGQGTKVEIKR
# notes: Bivalent monoclonal antibody; also called C11 mAb
# Experiments:
# human CD3ε [1] = target: T1, human CD3ε (human, UniProt P07766 23-207); test: flow cytometry, Jurkat cells
# T1 construct: whole, on cells; Present on cells as part of the CD3/TCR complex; also called CD3 epsilon
# [2] = target: T2, human CEACAM5 (carcinoembryonic antigen, CEA), cell surface (human, UniProt P06731 35-685); test: cell-based or functional assay
# T2 sequence (looked up): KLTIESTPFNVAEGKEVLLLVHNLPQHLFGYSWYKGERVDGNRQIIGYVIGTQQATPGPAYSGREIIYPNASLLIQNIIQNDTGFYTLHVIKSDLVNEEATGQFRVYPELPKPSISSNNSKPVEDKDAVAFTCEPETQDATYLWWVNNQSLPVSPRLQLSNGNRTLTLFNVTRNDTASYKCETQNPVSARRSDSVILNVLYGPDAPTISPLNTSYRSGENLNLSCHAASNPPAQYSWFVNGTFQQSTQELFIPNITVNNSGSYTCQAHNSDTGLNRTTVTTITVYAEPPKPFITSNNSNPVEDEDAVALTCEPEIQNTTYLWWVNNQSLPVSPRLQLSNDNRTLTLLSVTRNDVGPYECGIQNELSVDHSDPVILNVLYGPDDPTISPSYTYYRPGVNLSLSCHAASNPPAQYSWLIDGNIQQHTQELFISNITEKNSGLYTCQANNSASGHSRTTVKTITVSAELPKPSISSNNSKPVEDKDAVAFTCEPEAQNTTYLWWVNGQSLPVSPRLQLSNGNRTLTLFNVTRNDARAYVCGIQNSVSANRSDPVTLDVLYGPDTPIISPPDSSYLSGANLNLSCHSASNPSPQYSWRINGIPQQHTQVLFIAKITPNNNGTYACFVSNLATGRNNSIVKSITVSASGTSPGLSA
# [3] = target: T2, human CEACAM5 (carcinoembryonic …); test: flow cytometry, CEA positive cells
# [4] = target: T3, shed soluble CEACAM5 (sCEA) (human, UniProt P06731 35-685, limits assumed); test: cell-based or functional assay
# T3 sequence (looked up): T2 sequence (looked up)
# [5] = target: T2, human CEACAM5 (carcinoembryonic …); test: flow cytometry, MKN-45 cells
# Source text: Examples of cells that can be used include CEACAM5-positive cell lines such as the gastric adenocarcinoma cell line MKN45 (expressing 155′000 CEACAM5 molecules per cell), or the pancreatic adenocarcinoma cell line HPAF-II (expressing 108′000 CEACAM5 molecules per cell) or the colorectal adenocarcinoma cell line LS174T (expressing 26′000 CEACAM5 molecules per cell) and CEACAM5-negative cell lines, such as the lung carcinoma cell line A549 and the MKN45 CEACAM5-knock out cell line generated by CRISPR-CAS9 methodology. Cell staining and binding assessment can be performed as described above. Binding of the bsAb of the invention at 200 nM, 1000 nM and 5000 nM is 40% and higher compared to binding of TCB2014 (see Table 4 and also FIGS. 11 and 14).
# human CD3ε [6] = target: T1, human CD3ε; test: flow cytometry, primary CD4+ and CD8+ T-cells
# human CD3ε [7] = target: T1, human CD3ε; test: flow cytometry, HUT-78 cells
# [8] = target: T2, human CEACAM5 (carcinoembryonic …); test: flow cytometry, MKN-45 and/or HPAF-II cells
# [9] = target: T4, biotinylated recombinant human CEACAM5 protein (human, UniProt P06731 35-685, biotinylated in vitro with biotin ligase (Avitag)); test: competition ELISA with reference antibodies
# T4 construct: extracellular domain; also called recombinant CEA; CEA ECD; not shown: C-terminal Avitag and either a hexa-histidine tag, a human Fc region or a mouse Fc region; which one was used in the ELI
# T4 sequence (looked up): T2 sequence (looked up)
# T1 sequence (P07766 23-207): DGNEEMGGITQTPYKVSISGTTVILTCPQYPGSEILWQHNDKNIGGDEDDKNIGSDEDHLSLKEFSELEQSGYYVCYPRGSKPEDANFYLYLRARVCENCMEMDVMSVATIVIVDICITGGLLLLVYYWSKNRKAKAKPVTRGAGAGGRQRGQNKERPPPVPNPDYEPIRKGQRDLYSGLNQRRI
Binder,"Killing EC50, HPAFII cells (TDCC, LDH release) [2]","Killing EC50, LS174T cells (TDCC, LDH release) [2]","Killing EC50, MKN45 cells (TDCC, LDH release) [2]",binding higher than TCB2014 (at 200 nM) [3],"EC50 fold change compared to no shed CEA condition, sCEA 0 µg/mL (reference) [4]","EC50 fold change compared to no shed CEA condition, sCEA 0.2 µg/mL [4]","EC50 fold change compared to no shed CEA condition, sCEA 1 µg/mL [4]","EC50 fold change compared to no shed CEA condition, sCEA 5 µg/mL [4]",EC50 [5],Top MFI value [5],"binding higher than TCB2014 (at 200 nM, 1000 nM and 5000 nM) [5]",binding result (human CD3ε [6]),binding result (human CD3ε [7]),binding higher than TCB2014 (at 100 nM) [8],also measured
B1,–,–,–,–,–,–,–,–,–,–,–,–,–,–,binding result (human CD3ε [1]): binds
B2,0.2 nM,0.22 nM,0.05 nM,≥ 40%,1 fold,1.2 fold,2.1 fold,3.1 fold,24.3 nM,759000 MFI,≥ 40%,binds,–,–,–
B3,0.28 nM,0.21 nM,0.13 nM,≥ 40%,1 fold,0.9 fold,0.8 fold,1.3 fold,64.1 nM,989000 MFI,≥ 40%,binds,–,–,–
B4,–,–,–,–,–,–,–,–,–,–,–,–,binds,≥ 40%,–
B5,–,–,–,–,–,–,–,–,–,–,–,–,binds,≥ 40%,–
B6,–,–,–,–,–,–,–,–,–,–,–,–,binds,≥ 40%,–
B7,–,–,–,–,–,–,–,–,–,–,–,–,binds,≥ 40%,–
B8,0.1 nM,0.13 nM,0.11 nM,≥ 40%,1 fold,0.9 fold,4.6 fold,5.7 fold,66.4 nM,760000 MFI,≥ 40%,binds,–,–,–
B9,–,–,–,–,–,–,–,–,–,–,–,–,–,–,binding result [9]: binds
